T1: TREM2 R47H, biotinylated (human, UniProt Q9NZC2, R47H, biotin on the C-terminal BirA biotinylation sequence (enzymatic, BirA))
T1 sequence: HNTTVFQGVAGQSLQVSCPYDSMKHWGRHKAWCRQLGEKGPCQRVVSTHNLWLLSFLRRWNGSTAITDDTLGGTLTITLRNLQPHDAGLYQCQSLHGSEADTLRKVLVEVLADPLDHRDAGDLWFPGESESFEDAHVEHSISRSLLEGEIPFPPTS

T2: TREM2 R62H, biotinylated (human, UniProt Q9NZC2, R62H, biotin on the C-terminal BirA biotinylation sequence (enzymatic, BirA))
T2 sequence: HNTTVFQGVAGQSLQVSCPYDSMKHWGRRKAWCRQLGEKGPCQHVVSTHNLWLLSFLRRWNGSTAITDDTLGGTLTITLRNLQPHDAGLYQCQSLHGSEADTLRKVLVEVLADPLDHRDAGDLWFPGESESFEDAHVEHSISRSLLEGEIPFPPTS

B1: Human IL-34 (19-241) (ligand)
chain: LGNEPLEMWPLTQNEECTVTGFLRDKLQYRSRLQYMKHYFPINYKISVPYEGVFRIANVTRLQRAQVSERELRYLWVLVSLSATESVQDVLLEGHPSWKYLQEVETLLLNVQQGLTDVEVSPKVESVLSLLNAPGPNLKLVRPKALLDNCFRVMELLYCSCCKQSSVLNWQDCEVPSPQSCSPEPSLQYAATQLYPPPPWSPSSPPHSTGSVRPVRAQGEGLL

How the values were obtained:
Experiment in all cases: BLI
[1] = target: oligomeric amyloid beta 42 (UniProt P05067)
[2] = target: B1
[3] = target: T1, TREM2 R47H, biotinylated
[4] = target: T2, TREM2 R62H, biotinylated

| Kd [1] [nM] | Kd [2] [nM] | fold decrease in KD (affinity) against TREM2 WT [3] [fold] | fold decrease in KD (affinity) against TREM2 WT [4] [fold] | Binder |
| --- | --- | --- | --- | --- |
| 42.5 | 16.5 |  |  | TREM2 WT, biotinylated (receptor, biotin on the C-terminal BirA biotinylation sequence (enzymatic, BirA)) HNTTVFQGVAGQSLQVSCPYDSMKHWGRRKAWCRQLGEKGPCQRVVSTHNLWLLSFLRRWNGSTAITDDTLGGTLTITLRNLQPHDAGLYQCQSLHGSEADTLRKVLVEVLADPLDHRDAGDLWFPGESESFEDAHVEHSISRSLLEGEIPFPPTS |
|  |  | ~4 | ~4 | B1 |
